{"source": "patent US20150210998A1", "key": {"[1]": {"target": "GST-E6AP ligase (wild-type, bacterially expressed fusion protein) (human) (UniProt Q05086)", "assay": "inhibition of GST-E6AP-catalyzed 125I-polyubiquitin chain formation, nonlinear hyperbolic regression"}, "[2]": {"target": "GST-E6AP ligase (wild-type, bacterially expressed fusion protein) (human) (UniProt Q05086)", "assay": "calculated from the Ki of inhibition of chain formation"}, "[3]": {"target": "His6-E6AP ligase (full-length, baculovirus-expressed) (human) (UniProt Q05086)", "assay": "non-competitive inhibition with respect to [UbcH7]o of His6-E6AP chain formation"}, "[4]": {"target": "His6-E6AP ligase (full-length, baculovirus-expressed) (human) (UniProt Q05086)", "assay": "concentration dependence of inhibition of E6AP-catalyzed polyubiquitin chain formation"}, "[5]": {"target": "His6-E6AP ligase (full-length, baculovirus-expressed) (human) (UniProt Q05086)", "assay": "activation kinetics of His6-E6AP-catalyzed 125I-polyubiquitin chain formation (non-essential activator, double reciprocal plot)"}, "GST-E6APR626A (human)": {"target": "GST-E6APR626A (human) (UniProt Q05086)", "sequence (Q05086 other isoform, or with tags, fused parts or gaps)": "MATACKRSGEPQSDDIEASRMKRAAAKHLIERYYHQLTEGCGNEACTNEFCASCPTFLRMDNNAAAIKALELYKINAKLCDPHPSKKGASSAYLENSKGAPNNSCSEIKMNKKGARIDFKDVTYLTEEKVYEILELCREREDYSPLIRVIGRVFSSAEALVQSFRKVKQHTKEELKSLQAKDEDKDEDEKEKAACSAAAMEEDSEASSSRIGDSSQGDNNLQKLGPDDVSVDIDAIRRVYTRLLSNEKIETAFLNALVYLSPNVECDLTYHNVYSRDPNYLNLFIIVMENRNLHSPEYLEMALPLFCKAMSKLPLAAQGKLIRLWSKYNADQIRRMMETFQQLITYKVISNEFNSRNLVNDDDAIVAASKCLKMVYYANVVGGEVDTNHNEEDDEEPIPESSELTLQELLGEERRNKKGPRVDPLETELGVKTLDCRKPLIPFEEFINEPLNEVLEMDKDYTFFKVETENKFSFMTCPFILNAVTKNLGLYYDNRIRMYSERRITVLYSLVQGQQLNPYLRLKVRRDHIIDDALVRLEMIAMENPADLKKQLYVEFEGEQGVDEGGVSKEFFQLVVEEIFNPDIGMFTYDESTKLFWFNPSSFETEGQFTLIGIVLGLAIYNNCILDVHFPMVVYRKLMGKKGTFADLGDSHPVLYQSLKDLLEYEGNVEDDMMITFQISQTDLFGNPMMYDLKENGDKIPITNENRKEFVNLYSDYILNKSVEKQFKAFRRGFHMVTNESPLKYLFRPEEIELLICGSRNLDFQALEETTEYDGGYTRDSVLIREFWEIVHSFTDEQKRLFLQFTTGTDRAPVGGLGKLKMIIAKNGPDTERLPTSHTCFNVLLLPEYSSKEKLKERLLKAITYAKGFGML", "assay": "cell-based or functional assay"}, "GST-E6APY533A (human)": {"target": "GST-E6APY533A (human) (UniProt Q05086)", "sequence (Q05086 other isoform, or with tags, fused parts or gaps)": "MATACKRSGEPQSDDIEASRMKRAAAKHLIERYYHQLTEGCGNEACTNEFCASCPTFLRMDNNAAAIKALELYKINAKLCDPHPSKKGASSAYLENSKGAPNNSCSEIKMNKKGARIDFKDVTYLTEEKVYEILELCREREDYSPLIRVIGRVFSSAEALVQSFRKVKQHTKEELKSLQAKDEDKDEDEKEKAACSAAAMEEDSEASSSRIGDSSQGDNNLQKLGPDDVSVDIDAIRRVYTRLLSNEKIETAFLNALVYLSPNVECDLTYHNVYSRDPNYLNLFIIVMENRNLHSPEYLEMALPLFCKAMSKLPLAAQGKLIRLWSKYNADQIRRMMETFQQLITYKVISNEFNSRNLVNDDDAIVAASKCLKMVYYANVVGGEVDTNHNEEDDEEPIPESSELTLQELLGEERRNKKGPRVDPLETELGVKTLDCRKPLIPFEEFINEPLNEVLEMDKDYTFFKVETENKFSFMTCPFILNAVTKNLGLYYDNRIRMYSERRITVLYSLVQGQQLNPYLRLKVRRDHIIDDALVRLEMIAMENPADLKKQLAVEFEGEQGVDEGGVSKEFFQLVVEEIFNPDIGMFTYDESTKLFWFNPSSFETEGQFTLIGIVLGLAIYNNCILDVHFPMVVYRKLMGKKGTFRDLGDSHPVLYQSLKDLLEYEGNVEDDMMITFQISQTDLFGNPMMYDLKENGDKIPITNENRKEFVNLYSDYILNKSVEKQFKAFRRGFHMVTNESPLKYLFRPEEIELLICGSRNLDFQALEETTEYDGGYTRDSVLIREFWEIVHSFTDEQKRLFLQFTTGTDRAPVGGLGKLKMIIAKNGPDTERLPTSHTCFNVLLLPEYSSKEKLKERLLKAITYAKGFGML", "assay": "cell-based or functional assay"}, "[6]": {"target": "His6-E6AP ligase (full-length, baculovirus-expressed) (human) (UniProt Q05086)", "assay": "cell-based or functional assay"}, "[7]": {"target": "His6-E6AP ligase (full-length, baculovirus-expressed) (human) (UniProt Q05086)", "assay": "non-competitive inhibition with respect to [UbcH7]o of E6AP chain formation"}, "[8]": {"target": "GST-E6AP ligase (wild-type, bacterially expressed fusion protein) (human) (UniProt Q05086)", "assay": "inhibition of GST-E6AP-catalyzed 125I-polyubiquitin chain formation"}}}
{"substance": "E6APΔ495 (thrombin-processed) (from UniProt Q05086 1-495)", "values": [{"measurement": "Ki", "setting": "[1]", "result": 19, "unit": "µM"}, {"measurement": "ΔGbinding", "setting": "[2]", "result": -6.4, "unit": "kcal/mol"}]}
{"substance": "E6(HPV16)Δ91 N-terminal domain (from UniProt P03126 1-91)", "values": [{"measurement": "Ki", "setting": "[3]", "result": 6, "unit": "µM"}, {"measurement": "Ki", "setting": "[4]", "result": 4, "unit": "µM"}]}
{"substance": "HPV16 E6 protein (recombinant, full-length) (from UniProt P03126 1-158)", "values": [{"measurement": "Kd", "setting": "[5]", "result": 0.0015, "unit": "µM"}, {"measurement": "increase in rate of 125I-polyubiquitin chain formation with 20 nM E6", "setting": "GST-E6APR626A (human)", "result": 13, "unit": "fold"}, {"measurement": "increase in rate of 125I-polyubiquitin chain formation with 20 nM E6", "setting": "GST-E6APY533A (human)", "result": 8, "unit": "fold"}, {"measurement": "stimulation in E6AP ligase activity at saturating E6 protein", "setting": "[6]", "result": 14, "unit": "fold"}]}
{"substance": "GST-E6APΔ495 (from UniProt Q05086 1-495)", "values": [{"measurement": "Ki", "setting": "[1]", "result": 12, "unit": "µM"}, {"measurement": "ΔGbinding", "setting": "[2]", "result": -6.7, "unit": "kcal/mol"}]}
{"substance": "E6(HPV16)Ct C-terminal domain (from UniProt P03126 89-158)", "values": [{"measurement": "Ki", "setting": "[7]", "result": 4, "unit": "µM"}]}
{"substance": "GST-E6AP-HectC820A (from UniProt Q05086 450-852)", "values": [{"measurement": "Ki", "setting": "[8]", "result": 31, "unit": "µM"}]}
{"substance": "E6AP-HectC820A (thrombin-processed) (from UniProt Q05086 450-852)", "values": [{"measurement": "Ki", "setting": "[8]", "result": 27, "unit": "µM"}]}
